The values below are quoted from earlier work in paper PMC5290461.

In the data set the target is integrin beta1A cytoplasmic tail (Homo sapiens) (UniProt P05556). The experiment in a line: NMR.
Chain of UniProt P05556 (P05556 752-798): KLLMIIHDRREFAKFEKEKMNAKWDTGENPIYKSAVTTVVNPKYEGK

Regarding talin1 F3 (from UniProt P26039), the Kd (as a rule, a measure of binding affinity in units of concentration) was 491 µM.
For the substance talin2 F3 (from UniProt Q71LX4), the Kd is 652 µM.
